We go through three molecules from patent US20020001806A1, “Caspase-3s splicing variant” (priority 2000, published 2002).

Entries after “also recorded” stand apart in the source; their conditions may differ.

Format in all cases: cell-based, human
In assay [1] the test system is caspase-3 and caspase-3s expression. In words: Western blot (anti-flag) of recombinant caspase-3 and caspase-3s in transfected 293 cells after IGAL treatment. Conditions: IGAL treatment 16 hours. As for the experimental part: (§1) FIG. 6. A. 293 cells were transfected with flag-tagged caspase-3, flag-tagged caspase-3s or pcDNA3 vector, followed by IGAL treatment for 16 hours or left untreated (control). Fifty microgram of total cellular protein was assayed for caspase-3 and caspase-3s expression using antibody specific for flag-tag. The asterisk (*) indicates the N-terminal flag-tag containing activated capase-3 (20 kDa). The uppermost and lowest short arrow denote the two additional bands, 40 kDa and 14 kDa, respectively. […] 293 cells were treated with 5 μM IGAL for 48 hours. Total cell lysates were isolated and assayed for caspase-3 expression by Western blotting. The blot was probed with anticaspase-3 antibody (Pharmingen). […]
Proteasome appears to regulate caspase-3 potentially in two ways. […] To examine the effects of proteasome inhibitor on the expression of caspase-3 and caspase-3s, total cellular protein from transfected 293 cells treated with proteasome inhibitor IGAL were analyzed by Western blotting probed with the N-terminal antiflag antibody. […] In addition, we reproducibly detected two additional bands with a size of 40 kDa and 14 kDa, respectively, after IGAL treatment (FIG. 6B, lane 6). […]

Assay [2] concerns endogenous caspase-3. In words: Western blot (anti-caspase-3) of endogenous caspase-3 in untransfected 293 cells after IGAL treatment. The settings on record: 5 μM IGAL, 48 hours. As for the experimental part:
as §1
Evidence that the levels of endogenous caspase-3 and caspase-3s are regulated by proteasome degradation was also sought. Untransfected 293 cells were subjected to IGAL treatment and the cell samples were analyzed on Western blots probed with anticapase-3 antibody (Pharmingen). […] In parallel, a faint immunoreactive band of 20 kDa (p20) was detected only in the presence of IGAL treatment (FIG. 6B).
In general terms: Immunoblotting shows a protein as a band on a membrane.

Assay [3] deals with 293 cells. The assay can be described thus: Cytotox 96 colorimetric LDH release cytotoxicity assay in transfected 293 cells. The settings on record: for apoptosis / cell death (LDH release) induced by proteasome inhibitor I: 5 μM proteasome inhibitor I, 12 hours, vs vector. The procedure: The following experiments were performed to test the hypothesis that caspase-3s acts as a dominant negative isoform of caspase-3. The pcDNA empty vector, caspase-3, and caspase-3s constructs were transfected into 293 cells using the method described above (Sun et al., Supra., 1997). After 6 to 7 hours transfection, transfection medium was replaced with fresh medium containing 5 μM of proteasome inhibitor I (Z-Ile-Glu(otBu)-Ala-Leu-CHO) (Calbiochem). Cells were then incubated for 12 hours. Twenty-five microliter of the culture medium was subjected to cytotoxicity assay using the Cytotox 96 colorimetric LDH assay kit (Promega) according to manufacturer's instruction. Statistics were performed with t-test using Microsoft Excel analysis tools.
For control cells, lactate dehydrogenase (LDH) release in caspase-3 transfected cells was compared with both vector and caspase-3s transfected cells. For proteasome inhibitor treated cells, LDH release was compared between vector and caspase-3s transfected cells.

Assay [4] concerns 293 cells. The assay can be described thus: DNA fragmentation ELISA (Cell Death Detection ELISA) in transfected 293 cells. The settings on record: for apoptosis induced by staurosporine (DNA fragmentation): 0.5 μM staurosporine, 20 hours; for DNA fragmentation (basal apoptosis): untreated, vs vector and caspase-3s. As for the experimental part:
(§2) Human embryonal kidney 293 cells were seeded 1×10^5 into each well of a 24-well plate and transfected with caspase-3 and caspase-3s cDNA constructs by calcium phosphate method (Sun Y., Bian J., Wang Y., Jacobs C. Oncogene 1997;14:385-93;14: 385-393). Briefly, 500 nanogram of DNA was incubated in 0.25 M CaCl2 solution for 10 minutes at room temperature. The mixture was then incubated with 1×HEPES buffer (pH 6.88) for 15 minutes at room temperature before being added to the culture medium. After 6 to 7 hours transfection, transfection medium was replaced with fresh Opti-MEMI medium (GIBCO) containing 5 μM of Proteasome Inhibitor I (Z-Ile-Glu(otBu)-Ala-Leu-CHO) (Calbiochem) and incubated for 16 hours. For staurosporine treatment, cells were allowed to grow for 24 hours in serum containing medium after transfection. Cells then incubated with 0.5 μM staurosporine (Calbiochem) in Opti-MEMI medium for 20 hours.
DNA fragmentation ELISA was performed using the Cell Death Detection ELISA kit (Boehringer Mannheim) following the instruction provided by the supplier. Briefly, after 16 hours treatment with IGAL (Proteasome Inhibitor I), 293 cells were lysed by incubation with 500 μL of cell lysis buffer for 2 hours at room temperature. The lysate were then centrifuged at 200×g for 10 minutes. Twenty microliter of the supernatant were transferred into the streptavidin coated microtiter plate for analysis using the reagents provided with the assay kit. Statistical analyses were performed with student t-test using Microsoft Excel analysis tools.
On the technique in general: In an ELISA, binding on a coated surface is turned into a signal by an enzyme label.

In assay [5] the test system is PARP. The assay can be described thus: PARP cleavage to 85 kDa breakdown product by Western blot in transfected 293 cells. Conditions: for PARP cleavage (Western blot): IGAL treatment 16 hours, vs vector control; for PARP breakdown product (85 kDa), densitometric quantification: normalized to vector control, n=8. The procedure: as §2
Preparation of whole cell lysates and Western blotting were performed as previously described (McGinnis K. M., Gnegy M. E., Wang K. K. W. Endogenous bax translocation in SH-SY5Y human neuroblastoma cells and cerebellar granule neurons undergoing apoptosis. J. Neurochem. 1999;72:1899-1906; Huang Y., Domann F. E. Transcription factor AP-2 mRNA and DNA binding activity are constitutively expressed in SV40-immortalized but not normal human lung fibroblasts. Arch. Biochem. Biophys. 1999;364: 241-246). The blots were probed with antihuman caspase-3 p20 goat polyclonal antibody (Santa Cruz, CAT #sc-1226), antihuman caspase-3 rabbit polyclonal antibody (Pharmingen, CAT #65906E), antiflag monoclonal antibody (Sigma, CAT #F3165), or antihuman monoclonal PAPR antibody (Biomol Research Laboratories, Inc CAT #SA-250).
It is known that cleavage of caspase-3 substrates, such as poly(ADP)ribose polymerase (PARP), is prerequisite for apoptosis. Therefore, the effects of caspase-3s overexpression on PARP cleavage in both control and IGAL treated 293 was examined, along with caspase-3 overexpression as positive control. Cleavage of PARP to an immunoreactive breakdown product (85 kDa) was measured by Western blot.

Regarding Z-Ile-Glu(otBu)-Ala-Leu-CHO [IGAL], the “amount of recombinant caspase-3s” value in assay [1] (flag-tagged caspase-3s transfected 293 cells) is listed as “dramatic increase”. Also, the “abundance of recombinant full length caspase-3 (32 kDa band)” value in assay [1] (flag-tagged caspase-3 transfected 293 cells) is on record as “decrease in the abundance”. In addition, in assay [2], the “endogenous activated caspase-3 (p17)” value is given as “appearance of the 17 kDa activated caspase-3 (p17)” and the “levels of endogenous full-length caspase-3 (p32)” value is “remain the same; also recorded: stabilized endogenous caspase-3 expression”.

B1: caspase-3s: novel splicing variant of caspase-3, C-terminal truncated, 182 amino acids (SEQ ID No. 2); tested as transfected pcDNA3 cDNA construct (protein, listed as Homo sapiens)
chain: MENTENSVDSKSIKNLEPKIIHGSESMDSGISLDNSYKMDYPEMGLCIIINNKNFHKSTGMTSRSGTDVDAANLRETFRNLKYEVRNKNDLTREEIVELMRDVSKEDHSKRSSFVCVLLSHGEEGIIFGTNGPVDLKKITNFFRGDRCRSLTGKPKLFIIQVIILGEIQRMAPGSSSRFVPC
B1: the results for the “apoptosis / cell death (LDH release) induced by proteasome inhibitor I” value in assay [3] and in assay [3] (listed as Caspase-3s) were “significantly inhibited; also recorded: inhibits apoptotic cell death” and “inhibits cell death”, respectively. The “apoptosis induced by staurosporine (DNA fragmentation)” value in assay [4] is reported as “no significant effect”. Moreover, in assay [4] (5 μM IGAL, 16 hours, vs vector control and caspase-3, n=4), the “DNA fragmentation (apoptosis) induced by IGAL” value is “partially but significantly inhibited apoptosis; also recorded: significantly (# p<0.05) inhibited DNA fragmentation”. The “PARP cleavage (Western blot)” value in assay [5] is on record as “partially but significantly inhibited the cleavage of PARP”; in assay [5] (listed as Caspase-3s) it was “partially inhibited PARP cleavage”. For the same molecule, the “PARP breakdown product (85 kDa), densitometric quantification” value in assay [5] is “significantly decreased”.

B2: caspase-3: full length caspase-3 (32 kDa) cDNA in pcDNA3 vector transfected into 293 cells (protein, UniProt P42574 1-277, looked up)
chain: MENTENSVDSKSIKNLEPKIIHGSESMDSGISLDNSYKMDYPEMGLCIIINNKNFHKSTGMTSRSGTDVDAANLRETFRNLKYEVRNKNDLTREEIVELMRDVSKEDHSKRSSFVCVLLSHGEEGIIFGTNGPVDLKKITNFFRGDRCRSLTGKPKLFIIQACRGTELDCGIETDSGVDDDMACHKIPVEADFLYAYSTAPGYYSWRNSKDGSWFIQSLCAMLKQYADKLEFMHILTRVNRKVATEFESFSFDATFHAKKQIPCIVSMLTKELYFYH
modifications: full-length
notes: full length caspase-3 (32 kDa) cDNA in pcDNA3 vector transfected into 293 cells
For the molecule B2, the “apoptosis / cell death (LDH release) induced by proteasome inhibitor I” value in assay [3] is given as “underwent substantial apoptosis”. Moreover, the “apoptosis (LDH release)” value in assay [3] (untreated condition, vs vector and caspase-3s transfected cells) is on record as “significantly increased apoptosis”. For the same molecule, in assay [4], the “apoptosis induced by staurosporine (DNA fragmentation)” value was “did not reduce” and the “DNA fragmentation (basal apoptosis)” value was “significantly increased DNA fragmentation”. Also, the “DNA fragmentation (basal apoptosis)” value in assay [4] (listed as capase-3) is recorded as “induced basal apoptosis”. In addition, in assay [5], the “PARP cleavage (Western blot)” value was “enhanced by IGAL treatment” and the “PARP breakdown product (85 kDa), densitometric quantification” value is given as “increased PARP cleavage”. For the same molecule, in assay [5] (nontreated), the “basal PARP cleavage (Western blot)” value is listed as “increased basal PARP cleavage”.
